Residue numbers refer to the chain shown, from its start. Numbers in names are those of the source.
B1: TvDAAO (Trigonopsis variabilis; C108F/C298Q/E32R/F33D/F54S/M156L) (protein)
chain: MAKIVVIGAGVAGLTTALQLLRKGHEVTIVSRDTPGDLSIGYTSPWAGANWLTSYDGGKLADYDAVSYPILRELARSSPEAGIRLISQRSHVLKRDLPKLEVAMSAIFQRNPWFKNTVDSFEIIEDRSRIVHDDVAYLVEFRSVCIHTGVYLNWLLSQCLSLGATVVKRRVNHIKDANLLHSSGSRPDVIVNCSGLFARFLGGVEDKKMYPIRGQVVLVRNSLPFMASFSSTPEKENEDEALYIMTRFDGTSIIGGCFQPNNWSSEPDPSLTHRILSRALDRFPELTKDGPLDIVREQVGHRPGREGGPRVELEKIPGVGFVVHNYGAAGAGYQSSYGMADEAVSYVERALTRPNL
notes: FAD-containing; no tag mentioned
B2: TvDAAO (Trigonopsis variabilis) (protein)
chain: B1 chain with R32E, D33F, S54F, F108C, L156M, Q298C
notes: as for B1
B3: TvDAAO (Trigonopsis variabilis; C108F/E32R/F33D) (protein)
chain: B1 chain with S54F, L156M, Q298C
notes: as for B1
B4: TvDAAO (Trigonopsis variabilis; C108F/E32R/F33D/F54S) (protein)
chain: B1 chain with L156M, Q298C
notes: as for B1
B5: TvDAAO (Trigonopsis variabilis; C108F/F54S/M156L) (protein)
chain: B1 chain with R32E, D33F, Q298C
notes: as for B1
B6: TvDAAO (Trigonopsis variabilis; C108F/E32R/F33D/F54S/M156L) (protein)
chain: B1 chain with Q298C
notes: as for B1
B7: TvDAAO (Trigonopsis variabilis; C108F/C298G/E32R/F33D/F54S/M156L) (protein)
chain: B1 chain with Q298G
notes: as for B1
B8: TvDAAO (Trigonopsis variabilis; C108F/C298N/E32R/F33D/F54S/M156L) (protein)
chain: B1 chain with Q298N
notes: as for B1

Key:
TvDAAO = biological target: T1, TvDAAO (Trigonopsis variabilis, UniProt Q99042); assay: horseradish peroxidase / ABTS coupled assay, […] nm; assay type: biochemical; conditions: 0.05 M potassium phosphate pH 8.0, 30 °C, air saturated; read-out: wt-TvDAAO / KM
T1 construct: gene DAO1; FAD-containing; no tag mentioned
T1 sequence (Q99042 whole entry): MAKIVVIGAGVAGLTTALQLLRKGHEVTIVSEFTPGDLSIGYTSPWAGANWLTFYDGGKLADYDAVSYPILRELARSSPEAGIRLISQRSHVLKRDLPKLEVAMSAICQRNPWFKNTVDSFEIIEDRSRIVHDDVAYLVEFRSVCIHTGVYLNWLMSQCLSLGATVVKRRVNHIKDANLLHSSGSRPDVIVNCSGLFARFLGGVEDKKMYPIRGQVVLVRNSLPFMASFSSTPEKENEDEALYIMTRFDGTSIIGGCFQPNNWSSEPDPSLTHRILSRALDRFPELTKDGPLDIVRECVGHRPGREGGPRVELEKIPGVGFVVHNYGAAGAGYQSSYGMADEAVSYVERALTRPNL

[1] = substrate: [H][C@]12SCC(COC(C)=O)=C(C(=O)O)N1C(=O)[C@H]2NC(=O)CCC[C@@H](N)C(=O)O; assay: CPC consumption by HPLC, initial rates; assay type: biochemical, Trigonopsis variabilis; conditions: 0.1 M potassium phosphate pH 8.0, 30 °C, air saturated
Source text: CPC consumption by HPLC, initial rates on TvDAAO

purified protein [2] = substrate: NC(=O)C[C@@H](N)C(=O)O; assay: purified protein; conditions: 0.05 M potassium phosphate pH 8.0, 30 °C, air saturated
purified protein [3] = substrate: CC(C)[C@@H](N)C(=O)O; assay: purified protein; conditions: 0.05 M potassium phosphate pH 8.0, 30 °C, air saturated
purified protein [4] = substrate: CC(C)C[C@@H](N)C(=O)O; assay: purified protein; conditions: 0.05 M potassium phosphate pH 8.0, 30 °C, air saturated
purified protein [5] = substrate: C[C@@H](N)C(=O)O; assay: purified protein; conditions: 0.05 M potassium phosphate pH 8.0, 30 °C, air saturated
purified protein [6] = substrate: CSCC[C@@H](N)C(=O)O; assay: purified protein; assay type: biochemical, Trigonopsis variabilis; conditions: 0.05 M potassium phosphate pH 8.0, 30 °C, air saturated

Row | Molecule | Km (TvDAAO) [µM] | Km [1] [µM] | kcat [1] [s⁻¹] | kcat/Km [1] [M⁻¹ s⁻¹] | also measured
1 | N[C@H](CO)C(=O)O [D-Ser] | 37000 | – | – | – | –
2 | CSCC[C@@H](N)C(=O)O [D-Met] | 460 | – | – | – | –
3 | C[C@H](O)[C@@H](N)C(=O)O [D-Thr] | 11000 | – | – | – | –
4 | N[C@H](Cc1ccc(O)cc1)C(=O)O [D-Tyr] | 450 | – | – | – | –
5 | N[C@H](Cc1ccccc1)C(=O)O [D-Phe] | 370 | – | – | – | –
6 | N[C@H](Cc1c[nH]c2ccccc12)C(=O)O [D-Trp] | 490 | – | – | – | –
7 | NCCCC[C@@H](N)C(=O)O [D-Lys] | 29000 | – | – | – | –
8 | B1 | – | 1400 ± 300 | 68 ± 0.5 | 50000 ± 9000 | –
9 | B2 | – | 1400 ± 400 | 26 ± 3 | 18000 ± 5000 | Km (purified protein [2]): 23000 µM; kcat (purified protein [2]): 62 s⁻¹; Km (purified protein [3]): 14000 µM; kcat (purified protein [3]): 85 s⁻¹; Km (purified protein [4]): 400 µM; kcat (purified protein [4]): 29 s⁻¹; Km (purified protein [5]): 17000 µM; kcat (purified protein [5]): 109 s⁻¹
10 | B3 | – | 1150 ± 80 | 25.5 ± 1.4 | 22000 ± 2000 | –
11 | B4 | – | 1900 ± 400 | 88 ± 10 | 45000 ± 11000 | –
12 | B5 | – | 1900 ± 600 | 119 ± 7 | 60000 ± 20000 | –
13 | B6 | – | 1600 ± 300 | 106 ± 9 | 66000 ± 12000 | –
14 | B7 | – | 800 ± 200 | 65 ± 5 | 79000 ± 15000 | –
15 | B8 | – | 2900 ± 500 | 121 ± 15 | 42000 ± 8000 | Km (purified protein [6]): 1400 µM; kcat (purified protein [6]): 41 s⁻¹

— publication PMC6770189, “Multipoint TvDAAO Mutants for Cephalosporin C Bioconversion” (International Journal of Molecular Sciences, 2019)
